# Earlier results as cited in PMC8296306.
# Legend:
# Cxcl1/KC (Mus musculus) = Cxcl1/KC (Mus musculus) (UniProt P12850)
# [1] = biological target: Cxcl2/MIP2 (Mus musculus) (UniProt P10889)
Kd (Cxcl1/KC (Mus musculus)),Kd [1],Substance
35 µM,–,Cxcl1/KC (from UniProt P12850)
–,15 µM,Cxcl2/MIP2 (from UniProt P10889)
